This note sets out measurements from patent US20200157212A1 (Pfizer, published 2020).

Numbering of substitutions follows the chain as printed.

First the molecules themselves.
B1: 93H2 (antibody, human IgG1, kappa, V domains shown)
VH: EVQLVQSGAEVKKPGASVKVSCKASGYTFTGYYMHWVRQAPGQGLEWMGWINPNSGATNFPQKFQGRVTMTRDTSITTAYMDLSRLRSDDTAVYYCARESGDDAFDIWGQGTMVTVSS
VL: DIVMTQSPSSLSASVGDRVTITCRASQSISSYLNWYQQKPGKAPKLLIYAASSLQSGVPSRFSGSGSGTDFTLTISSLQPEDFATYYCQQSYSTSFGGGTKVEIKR
notes: also called parental 93H2; 93H2 mAb
B2: Abcs25 (antibody, human IgG1, kappa, V domains shown)
VH: B1 VH with N54K, S55D, A57D, N59E
VL: DIVMTQSPSSLSASVGDRVTITCRASQSISSYLNWYQQKPGKAPKLLIYAASSLQSGVPSRFSGSGSGTDFTLTISSLQPEDFATYYCQQSVGLSFGGGTKVEIKR
notes: chain-shuffled IgG
B3: Abcs35 (antibody, human IgG1, kappa)
heavy: EVQLVQSGAEVKKPGASVKVSCKASGYTFTGYYMHWVRQAPGQGLEWMGWINPKNGDTEFPQKFQGRVTMTRDTSITTAYMDLSRLRSDDTAVYYCARESGDDAFDIWGQGTMVTVSSASTKGPSVFPLAPSSKSTSGGTAALGCLVKDYFPEPVTVSWNSGALTSGVHTFPAVLQSSGLYSLSSVVTVPSSSLGTQTYICNVNHKPSNTKVDKKVEPKSCDKTHTCPPCPAPEAAGAPSVFLFPPKPKDTLMISRTPEVTCVVVDVSHEDPEVKFNWYVDGVEVHNAKTKPREEQYNSTYRVVSVLTVLHQDWLNGKEYKCKVSNKALPAPIEKTISKAKGQPREPQVYTLPPSREEMTKNQVSLTCLVKGFYPSDIAVEWESNGQPENNYKTTPPVLDSDGSFFLYSKLTVDKSRWQQGNVFSCSVMHEALHNHYTQKSLSLSPGK
light: DIVMTQSPSSLSASVGDRVTITCRASQSISSYLNWYQQKPGKAPKLLIYAASSLQSGVPSRFSGSGSGTDFTLTISSLQPEDFATYYCQQSVGLFFGGGTKVEIKRTVAAPSVFIFPPSDEQLKSGTASVVCLLNNFYPREAKVQWKVDNALQSGNSQESVTEQDSKDSTYSLSSTLTLSKADYEKHKVYACEVTHQGLSSPVTKSFNRGEC
notes: fully human IgG1; VH of Ab96 with VL of Ab123

The target of one assay is T1, Human ROBO1 RSK mutant overexpressed on HEK293 cells (human, UniProt Q9Y6N7 26-1651).
T1 construct: K137R and R139K already in the entry; also called ROBO1-RSK cells
T1 sequence (Q9Y6N7 other isoform, or with tags, fused parts or gaps mutant limits assumed): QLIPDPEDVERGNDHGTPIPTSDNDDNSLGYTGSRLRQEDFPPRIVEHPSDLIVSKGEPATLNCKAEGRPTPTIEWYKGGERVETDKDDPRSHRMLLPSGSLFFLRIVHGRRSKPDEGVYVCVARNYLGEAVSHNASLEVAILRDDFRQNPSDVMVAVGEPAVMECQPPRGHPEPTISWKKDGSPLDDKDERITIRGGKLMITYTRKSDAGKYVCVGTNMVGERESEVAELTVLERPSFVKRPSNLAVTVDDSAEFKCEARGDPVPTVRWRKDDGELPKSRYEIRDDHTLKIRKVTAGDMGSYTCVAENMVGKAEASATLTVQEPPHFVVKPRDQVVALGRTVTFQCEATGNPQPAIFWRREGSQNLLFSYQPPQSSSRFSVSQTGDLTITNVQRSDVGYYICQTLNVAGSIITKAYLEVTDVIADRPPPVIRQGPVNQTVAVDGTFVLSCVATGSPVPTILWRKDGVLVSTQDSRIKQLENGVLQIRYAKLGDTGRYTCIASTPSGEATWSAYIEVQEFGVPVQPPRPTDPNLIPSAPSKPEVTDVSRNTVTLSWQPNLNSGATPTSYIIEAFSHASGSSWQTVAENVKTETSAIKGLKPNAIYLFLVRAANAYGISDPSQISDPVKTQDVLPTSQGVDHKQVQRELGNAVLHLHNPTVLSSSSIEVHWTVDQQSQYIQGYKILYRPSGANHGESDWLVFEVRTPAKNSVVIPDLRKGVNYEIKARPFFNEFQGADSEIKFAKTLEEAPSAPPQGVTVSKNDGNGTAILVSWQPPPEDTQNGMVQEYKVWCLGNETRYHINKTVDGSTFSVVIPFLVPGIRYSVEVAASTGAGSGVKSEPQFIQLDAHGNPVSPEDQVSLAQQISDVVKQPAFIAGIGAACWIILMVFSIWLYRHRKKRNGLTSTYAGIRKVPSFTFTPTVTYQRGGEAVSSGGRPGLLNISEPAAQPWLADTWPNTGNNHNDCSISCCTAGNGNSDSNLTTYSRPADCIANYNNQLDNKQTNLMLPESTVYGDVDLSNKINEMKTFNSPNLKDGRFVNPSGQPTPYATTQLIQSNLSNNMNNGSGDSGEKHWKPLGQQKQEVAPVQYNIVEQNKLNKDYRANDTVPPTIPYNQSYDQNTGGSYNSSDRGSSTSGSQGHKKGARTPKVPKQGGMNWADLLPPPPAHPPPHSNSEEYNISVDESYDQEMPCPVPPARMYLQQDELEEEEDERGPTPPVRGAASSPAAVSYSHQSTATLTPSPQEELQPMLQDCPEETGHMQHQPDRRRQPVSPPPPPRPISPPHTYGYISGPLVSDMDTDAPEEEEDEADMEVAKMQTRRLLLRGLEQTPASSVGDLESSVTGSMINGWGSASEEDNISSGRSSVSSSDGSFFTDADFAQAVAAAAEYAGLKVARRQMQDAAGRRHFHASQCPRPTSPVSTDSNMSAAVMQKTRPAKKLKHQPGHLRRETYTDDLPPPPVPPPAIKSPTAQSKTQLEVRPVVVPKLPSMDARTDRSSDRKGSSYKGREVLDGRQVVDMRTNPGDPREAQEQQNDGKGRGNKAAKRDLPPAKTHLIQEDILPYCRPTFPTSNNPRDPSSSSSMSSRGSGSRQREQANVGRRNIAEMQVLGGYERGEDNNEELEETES
Description: flow cytometry, HEK293 ROBO1-RSK cells. The procedure:
(§1) Binding of the antibodies was detected using a secondary fluorochrome conjugated anti-human IgG F(ab′)₂ antibody and samples were analyzed on a Fortessa cytometer (BD Biosciences). The fold ROBO2 selectivity was calculated as the geometric mean fluorescence intensity (Geo MFI) with ROBO2 cells/Geo MFI with ROBO1 cells. A fold change higher than 3 was considered to be ROBO2 specific (Table 2, Fold Selectivity). Some affinity matured clones had increased ROBO1 reactivity, for example Abcs 55, CTI-R2-10 and CTIR2-13.
(§2) Based upon several criteria, Abcs25 and Abcs35 were selected for further characterization. Using flow cytometry, improvement in the binding EC₅₀ to human ROBO2 relative to the parental 93H2 was evaluated. Starting at 6.7 nM, 11-point, 3-fold dilution series were made for each antibody and used to stain HEK293 overexpressing human ROBO2 as described above for the ROBO2 fold selectivity (Example 2). […] In addition to measuring improved binding to human ROBO2, it was important to ensure that high affinity binding to both cynomolgus monkey ROBO2 and rat ROBO2 was maintained. Using HEK293 cells overexpressing either cynomolgus monkey ROBO2 or rat ROBO2, the relative dose-dependent binding of 93H2, Abcs25 and Abcs35 was evaluated as described above. High affinity binding to both cynomolgus monkey and rat ROBO2 was maintained in Abcs25 and Abcs35 (Table 4). […] Briefly, Abcs35 was immobilized to 300 resonance units (RU) on a CM5 chip. Association of ROBO2 Ig1-Ig2-His (ROBO2) was measured over 5 minutes and dissociation was followed for a period of 10 minutes.
RSK specificity for Abcs35, along with 93H2 and Abcs25, also was confirmed in a cell-based binding assay using flow cytometry. HEK293 cells overexpressing ROBO2 containing the KSR sequence from ROBO1 (ROBO2-KSR) or ROBO1 containing the RSK sequence from ROBO2 (ROBO1-RSK) were generated. As described above in Example 3, dose-dependent binding was evaluated.
(A flow cytometer gives signals particle by particle.)
In general, EC50 refers to the concentration needed to bring the measured effect to its halfway point. Lower therefore signals an effect from little substance. As for B1, the midpoint of the response, the EC50, lay at 370 pM.

For the molecule B2, the response was half-maximal at 61 pM (EC50).

Regarding B3, the EC50 was 74 pM.

The target in a further assay is T2, Human ROBO2 overexpressed on HEK293 cells (human, UniProt Q9HCK4 22-1378).
T2 construct: also called ROBO2 cells; native ROBO2
T2 sequence: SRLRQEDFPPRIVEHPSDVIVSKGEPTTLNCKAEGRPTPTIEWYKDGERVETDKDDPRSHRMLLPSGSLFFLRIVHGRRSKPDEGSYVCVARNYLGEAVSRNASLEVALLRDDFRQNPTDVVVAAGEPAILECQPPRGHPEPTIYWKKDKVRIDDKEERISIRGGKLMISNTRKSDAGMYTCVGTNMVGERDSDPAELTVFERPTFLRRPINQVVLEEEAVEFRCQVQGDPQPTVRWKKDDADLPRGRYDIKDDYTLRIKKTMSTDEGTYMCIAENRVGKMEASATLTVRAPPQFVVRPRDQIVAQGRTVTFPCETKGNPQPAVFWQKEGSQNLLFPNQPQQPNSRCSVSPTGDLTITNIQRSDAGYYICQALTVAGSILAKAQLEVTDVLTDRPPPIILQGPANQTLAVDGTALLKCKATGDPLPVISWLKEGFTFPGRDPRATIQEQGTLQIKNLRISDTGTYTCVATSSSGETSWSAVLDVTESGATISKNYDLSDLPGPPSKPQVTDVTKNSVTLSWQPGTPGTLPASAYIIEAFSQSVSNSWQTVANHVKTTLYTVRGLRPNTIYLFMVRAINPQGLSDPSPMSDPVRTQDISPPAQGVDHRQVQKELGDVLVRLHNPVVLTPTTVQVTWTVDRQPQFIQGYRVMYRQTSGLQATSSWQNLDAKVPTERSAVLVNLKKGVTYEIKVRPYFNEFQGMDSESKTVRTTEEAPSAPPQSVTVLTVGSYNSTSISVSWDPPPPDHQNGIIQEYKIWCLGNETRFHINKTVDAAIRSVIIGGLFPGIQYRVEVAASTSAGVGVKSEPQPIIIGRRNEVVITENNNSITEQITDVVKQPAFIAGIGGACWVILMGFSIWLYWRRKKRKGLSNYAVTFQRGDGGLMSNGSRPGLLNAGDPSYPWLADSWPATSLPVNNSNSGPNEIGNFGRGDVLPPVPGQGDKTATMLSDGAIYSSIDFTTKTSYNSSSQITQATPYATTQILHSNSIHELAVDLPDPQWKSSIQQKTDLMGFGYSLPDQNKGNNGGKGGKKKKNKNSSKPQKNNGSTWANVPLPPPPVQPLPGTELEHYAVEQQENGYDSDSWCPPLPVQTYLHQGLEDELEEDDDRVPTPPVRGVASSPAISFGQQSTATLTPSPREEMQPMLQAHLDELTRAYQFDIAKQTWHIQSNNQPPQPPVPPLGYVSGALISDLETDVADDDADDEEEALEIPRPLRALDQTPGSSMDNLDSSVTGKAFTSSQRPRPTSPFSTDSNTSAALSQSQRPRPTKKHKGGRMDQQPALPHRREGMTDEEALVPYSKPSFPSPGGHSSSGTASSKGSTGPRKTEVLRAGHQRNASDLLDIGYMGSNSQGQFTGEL
Description: flow cytometry, HEK293 cells overexpressing human ROBO2. On the procedure:
as §1, §2
As for B1, the EC50 was determined as 133 pM.

With B2, the EC50 was 56 pM.

Take B3: a half-maximal response (EC50) required 55 pM.
